Source: patent publication US9889184B2 (priority 2008, dated 2018)

Assays:
Format in all cases: cell-based
[1] = test system: Fusarium oxysporum f. sp. vasinfectum (Fov); assay: Growth of Fov with NaD1 and proteinase inhibitors (Example 6); conditions: 40 h, FIG. 6
Method: The inhibitory effects of defensin (NaD1) and proteinase inhibitors on the growth of Fusarium oxysporum f. sp. vasinfectum (Fov) (Australian isolate VCG01111 isolated from cotton and provided by Farming Systems Institute, DPI, Queensland, Australia) were measured essentially as described by Broekaert et al, supra 1990. Spores were isolated from sporulating cultures growing in ½ strength potato dextrose broth (PDB). The Fov culture was grown in ½ PDB for 1-2 weeks at room temperature, before spores were separated from hyphal matter by filtration through sterile tissue paper. The concentration of spores in the filtrate was measured using a hemocytometer. NaD1 and the proteinase inhibitors were prepared as described in Example 4. The conditions used for the fungal growth assay were the same as those described in Example 4. After 40h at 25° C. fungal growth was assessed by measuring optical density at 595 nm (A595).

[2] = test system: Fusarium graminearum; conditions: F. graminearum
[3] = test system: Colletotrichum graminicola; conditions: C. graminicola, 40 h, FIG. 7
[4] = test system: Fusarium graminearum; conditions: concentrations up to 18.5 uM in the absence of NaD1

B1: NaCys2: cystatin from Nicotiana alata, bacterially expressed (SEQ ID NO:4) (protein)
chain: MANLGGIREAGGSENSLEINDLARFAVDGHNKKQNALLEFRKVVNVKEQVVAGTMYYITLEATEGGKKKAYEAKVWVKPWQNFKQLEDFKLIGDAASA
modifications: Nicotiana alata (NaCys2)
synergy with NaD1 on growth inhibition [1]: Less, but significant synergy | synergy with the petunia defensin PhD1A on growth inhibition [2]: synergistic effect | synergy with the tomato defensin Tomdef2 on growth inhibition [2]: synergistic effect | synergy with NaD1 on growth inhibition [3]: synergistic effect | effect on hyphal growth [4]: no effect on hyphal growth
